Assay results: PMC6327030, “Structure and inhibition mechanism of the catalytic domain of human squalene epoxidase” (Nature Communications, 2019)

Key:
[1] = substrate: CC(C)=CCC/C(C)=C/CC/C(C)=C/CC/C=C(\C)CC/C=C(\C)CCC=C(C)C; assay: cells, lysate or membranes named; details: other: SQLE baculosome; varied squalene, saturating FAD; pH 7.0
[2] = substrate: CC(C)=CCC/C(C)=C/CC/C(C)=C/CC/C=C(\C)CC/C=C(\C)CCC=C(C)C; assay: purified protein, by the assay type; details: varied squalene, saturating FAD

B1: baculosome-derived full-length SQLE (Homo sapiens) (protein)
chain: MWTFLGIATFTYFYKKFGDFITLANREVLLCVLVFLSLGLVLSYRCRHRNGGLLGRQQSGSQFALFSDILSGLPFIGFFWAKSPPESENKEQLEARRRRKGTNISETSLIGTAACTSTSSQNDPEVIIVGAGVLGSALAAVLSRDGRKVTVIERDLKEPDRIVGEFLQPGGYHVLKDLGLGDTVEGLDAQVVNGYMIHDQESKSEVQIPYPLSENNQVQSGRAFHHGRFIMSLRKAAMAEPNAKFIEGVVLQLLEEDDVVMGVQYKDKETGDIKELHAPLTVVADGLFSKFRKSLVSNKVSVSSHFVGFLMKNAPQFKANHAELILANPSPVLIYQISSSETRVLVDIRGEMPRNLREYMVEKIYPQIPDHLKEPFLEATDNSHLRSMPASFLPPSSVKKRGVLLLGDAYNMRHPLTGGGMTVAFKDIKLWRKLLKGIPDLYDDAAIFEAKKSFYWARKTSHSFVVNILAQALYELFSATDDSLHQLRKACFLYFKLGGECVAGPVGLLSVLSPNPLVLIGHFFAVAIYAVYFCFKSEPWITKPRALLSSGAVLYKACSVIFPLIYSEMKYMVH
Km [1]: 3.3 ± 0.7 µM | kcat [1]: 0.0233 s⁻¹ | kcat/Km [1]: 7080 M⁻¹ s⁻¹

B2: endogenous SQLE in human liver microsomes (Homo sapiens) (protein)
chain: B1 chain
Km ([2]; other: HLMs): 2.9 ± 0.2 µM

B3: recombinant N-terminally truncated SQLE (118–574) (Homo sapiens) (protein)
chain: TSSQNDPEVIIVGAGVLGSALAAVLSRDGRKVTVIERDLKEPDRIVGEFLQPGGYHVLKDLGLGDTVEGLDAQVVNGYMIHDQESKSEVQIPYPLSENNQVQSGRAFHHGRFIMSLRKAAMAEPNAKFIEGVVLQLLEEDDVVMGVQYKDKETGDIKELHAPLTVVADGLFSKFRKSLVSNKVSVSSHFVGFLMKNAPQFKANHAELILANPSPVLIYQISSSETRVLVDIRGEMPRNLREYMVEKIYPQIPDHLKEPFLEATDNSHLRSMPASFLPPSSVKKRGVLLLGDAYNMRHPLTGGGMTVAFKDIKLWRKLLKGIPDLYDDAAIFEAKKSFYWARKTSHSFVVNILAQALYELFSATDDSLHQLRKACFLYFKLGGECVAGPVGLLSVLSPNPLVLIGHFFAVAIYAVYFCFKSEPWITKPRALLSSGAVLYKACSVIFPLIYSEMKYMVH
Km ([2]; other: SQLE (118–574), pH 8.0): 1.9 ± 0.4 µM | kcat ([2]; other: SQLE (118–574), pH 8.0): 0.0348 s⁻¹ | kcat/Km ([2]; other: SQLE (118–574), pH 8.0): 18300 M⁻¹ s⁻¹
